Measured values from the nanobody polyreactivity screen of Harvey et al. (2022).

Experiment: yeast display, Sf9 membrane polyspecificity reagent, FACS + sequencing; frameworks hold sequencing errors
In short: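 Galactose induction of a Saccharomyces cerevisiae BJ5465 synthetic nanobody display library ran 36–48 hours. The cells were then stained for 1 hour at 4 °C with 10% biotinylated, detergent-solubilized Sf9 membrane reagent, pulled down on streptavidin microbeads and FACS-sorted into low and high (top ~1%) gates on expression and reagent-binding fluorescence. Labels for polyreactivity follow the gate of origin.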

| Sequence | polyreactivity (PSR sort gate) |
| --- | --- |
| QVQLVESGGGLVQAGGSLRLSCAASGFISPSYAMGWYRQAPGKERELVAAIRSSDGSTYYADSVKGRFTISRDNAKNTVYLQMNSLKPEDTAVYYCAAGGSYYRDDYWGQGTQVTVSS | low polyreactivity |
| QVQLVESGGGLVQAGGSLRLSCAASGFISQFYAMGWYRQAPGKERELVAAINWRGDSTYYADSVKGRFTISRDNAKNTVYLQMNSLKPEVTAVYYCAAENWSGYDYWGQGTQVTVSS | high polyreactivity |
| QVQLVESGGGLVQAGGSLRLSCAASGFISRYAMGLYRQAPGKERELVAAINRSGGRTYYADSVKGRFTISRDNAKNTVYLQMNSLKPEDTAVYYCAAERSSSYTYDFWGQGTQVTVSS | high polyreactivity |
| QVQLVESGGGLVQAGGSLRLSCAASGFISVRNAMGWYRQAPGKERELVAAISSGDTTDYADSVKGRFTISRDNAKNTVSLQMNSLKAEDTAVYYCAAVYYGRYYYWGQGTQVTVSS | low polyreactivity |
| QVQLVESGGGLVQAGGSLRLSCAASGFISYTYMGWYRQAPGKERELVAGITGSGGSTYYADSVKGRFTISRDNAKNTVYLQMNSLKPEDTAVYYCAAERPRRSPDGLNYWGQGTQVTVSS | high polyreactivity |
| QVQLVESGGGLVQAGGSLRLSCAASGFIVASNAMGGDRQAPGKVRELLAAINSSAGSTYYADSVKGRFTISRDNAKNTVYLQMNSQKPEDTAVYYCNRDDGSVYRRHRRPYYYWGQRTQVTVSS | low polyreactivity |
| QVQLVESGGGLVQAGGSLRLSCAASGFIVYTYAMGWYRPAPGKERELVAAISIGGRTNYADSVKGRFTISRDNAKNTVSLQMNSLKPEDTARYYCAARGYKRIGYWGQGTLVTVSS | high polyreactivity |
| QVQLVESGGGLVQAGGSLRLSCAASGFIYGRNAMGWYRQAPGKERELVAAINWRGGSTYYADSVKGRFTISRDNAKNTVYLQMNSLKAEDTAVYYCAARAPYRYGYDYWGQGTQVTLSS | high polyreactivity |
| QVQLVESGGGLVQAGGSLRLSCAASGFIYSKYAMRWYRQAPGKERELVAAITFSGGSTYYADSVKGRFTISRDNAKKTVYLQMNSLKPEDTAVYYCNAEGSYPDVSPVLGYDYWGQGTQVTVSS | low polyreactivity |
| QVQLVESGGGLVQAGGSLRLSCAASGFNCATNYMGWYRQAPGKERELVAAITKGGGRTYYADSVKGRFTISRDNAKNTVYLQMNSLKPEDTAVYYCAARQLIKYDYWGQGTQVTVSS | low polyreactivity |
| QVQLVESGGGLVQAGGSLRLSCAASGFNFAIYAMGWYRQAPGKERELVAAISSSGGSTYYADSVKGRFTISRDNAKNTVYLQMNSLKPEDTAVYYCNADWSLYWLDYWGQGTQVTVSS | high polyreactivity |
| QVQLVESGGGLVQAGGSLRLSCAASGFNFASNAMGWYRQAPGKERELVAAITKSGGRTYYADSVKGRFTISRDNAMNTVYLQMNSLKPEDTAVYYCAAKVRVVHRPYDHWGQGTQVTVSS | high polyreactivity |
| QVQLVESGGGLVQAGGSLRLSCAASGFNFDGYAMGWYRQAPGKERELVAAITYSGGSTYYADSVKGRFTISRDNAKNTVYLQMNSLKPEDTAVYYCAAESYVYGGSDYDYWGQGTQVTVSS | low polyreactivity |
| QVQLVESGGGLVQAGGSLRLSCAASGFNFDWYAMGWYRQAPGKERELVAAISASGGRTYYADSVKGRFTISRDNAKNTVYLQMNSLKPEDTAVYYCNKYYLVKGPYDWGQGTQVTVSS | high polyreactivity |
| QVQLVESGGGLVQAGGSLRLSCAASGFNFGGYPMGWYRQAPGKERELVADISKRGGSTFYADSVKGRFTISRDNAKNTVYLQMNSLKPEDTAVYYCATRFFYPYWGVYEYYYWGQGTQVTVSS | high polyreactivity |
| QVQLVESGGGLVQAGGSLRLSCAASGFNFKHYAMGWYRQAPGKERELVATITRGGSTNYADSVKGRFTISRDNAKNTVYLQMNSLKPEDTAVYYCAASDYVRYPFTRGYIYQGSDYWGQGTQVTVSS | low polyreactivity |
| QVQLVESGGGLVQAGGSLRLSCAASGFNFNNNGMGWYRQAPGKERELDAAISYSGGRTYYADSVKGRFTISRDNAKNTLYLQMNSLKPEETAVYYFADNSYYSRYDYWGQGTQVTVSS | low polyreactivity |
| QVQLVESGGGLVQAGGSLRLSCAASGFNFPGNAIGWYTPAPGKERELVATISSGGSTKYADSVKGRFTISRDNAKNTVYLQMNSLKPEDTAVYYFAARVYLGVFDYYYWGQGTQVTVSS | low polyreactivity |
| QVQLVESGGGLVQAGGSLRLSCAASGFNFPHYAMGWYIQAPGKERELVAAISWSGTRTYYADSVKGRFTISRDNAKNTVYLQMNSLKPEDTAVYYCNADSITEGNSRYSHFDYWGQGTQVTVSS | low polyreactivity |
| QVQLVESGGGLVQAGGSLRLSCAASGFNFRWYAMGWYRQAPGKESEFVAAITWRGGRTYYADSVKGRFTISRDNAKNTVYLQMNSLKPEDTAVYYCNAVYQYWHYSEGNYWGQGTQVTVSS | low polyreactivity |
| QVQLVESGGGLVQAGGSLRLSCAASGFNFRYNAMGWYRQAPGKERELVAGISGGGTHYADSVKGRFTISRDNAKNTVYLQMNSLKPEDTAVYYCARRGGYRRNTNFYYWGQGTQVTVSS | high polyreactivity |

| Sequence | polyreactivity (PSR sort gate) |
| --- | --- |
| QVQLVESGGGLVQAGGSLRLSCAASGFNFSHNAMGWYRQAPGKERELVAAISGSGGRTYYADSVKGRFTISRDNAKNTVDLQMNSLKPEDTAVYYCNAGRWWRRGYGYWGQVTQVTVSS | high polyreactivity |
| QVQLVESGGGLVQAGGSLRLSCAASGFNFTRYAMGWYRQAPGKERELVAAISSGSRTYYADSVKGRFTISRDNAKNTVYLQMISLKPEDTAVYYCAAPVYTYYGHYDSWGQGTQVTVSS | high polyreactivity |
| QVQLVESGGGLVQAGGSLRLSCAASGFNFYFYTMGWYRQAPGKERELVAGITWSGDSTYYADSVKGRFTISRDNAKNTVYLQMNSLKPEDTAVYYCAAGFDFGTRVSKGYDYWGQGTQVTVSS | low polyreactivity |
| QVQLVESGGGLVQAGGSLRLSCAASGFNFYGYAMGWYRQAPGKERQLVATISRGGSTTYYADSVKGRFTISRDNAKNTVYLQMNSLKPEDTAVYYCAAYNVIYTRRMYYWGQGTQVTVSS | high polyreactivity |
| QVQLVESGGGLVQAGGSLRLSCAASGFNFYRYAMGWYRQAPGKERELVAVITGRGGTTYYSDSVKGRFTISRDNAKNTVYLQMNSLKTEDTAVYYCAAPQQQSWTYDGRYGYWGQGTKVTVSS | high polyreactivity |
| QVQLVESGGGLVQAGGSLRLSCAASGFPFVYYVMGWYRPAPGKERELVAAINAGGGYTYYADSVKGRFTISRDNAKNTVYVQMNSLKPEDTAVYYCNARVRVRLGRNWSSYYYWGQGTQVTVSS | high polyreactivity |
| QVQLVESGGGLVQAGGSLRLSCAASGFSFDFYTMGWYRQAPGKERELVAAITWSGDSTYYADSVKGRFTISRDNAKNTVDLQMNSLKPEDTAVYYCAVARVSQDGYRRRVTTWHDDYWGQGTQVTVSS | low polyreactivity |
| QVQLVESGGGLVQAGGSLRLSCAASGFSFDTYAMGWYRQAPGKERELVAVISRGGSTYYADSVKGRFTISRDNAKNTVYLQMNSLKPEDTAVYYCAARSHGSYAYQYGYWGQGTQVTVSS | high polyreactivity |
| QVQLVESGGGLVQAGGSLRLSCAASGFSFGVYAMGWSRQAPGKERELVAAISTTVGSTYYADSVKGRFTISRDNAKNTVYLQMNSLKPEDTAVYYCAAEYTGYINYYIYEYWGQGTQVTVSS | low polyreactivity |
| QVQLVESGGGLVQAGGSLRLSCAASGFSFIDNALGWYPQAPGKERELVAAITWSGGSTYYADSVKGRFTISRDNAKNTVYLQMNSLKPEDTAVYYCAATLWFGVAGDSRYDPPEYDYWGQGTQVTVSS | low polyreactivity |
| QVQLVESGGGLVQAGGSLRLSCAASGFSFRYYAMGWYRQAPGKERELVAAISSSGTRTYYADSVKGRFTISRDNATTTVYLQMNSLKPEDTAVYYCNAGSPTSTVDYWGQGTQVTVSS | high polyreactivity |
| QVQLVESGGGLVQAGGSLRLSCAASGFSFSSYAMGWYRQAPGTERELVATISVNGGSTNYADSVKGRFTISRDNAKNTVYLQMNSLIPEDTAVYYCNAKSYTRRSYYTPTVPGDYWGQGTQVTVSS | low polyreactivity |
| QVQLVESGGGLVQAGGSLRLSCAASGFSFSYYAMGWYRQAPGKERELVAAINYSGTSTYYADSVKGRFTISRDNAKNTVYLQMKSLKPEDTAVYYCAADLPYYPYLYDYWGQGTQVTVSS | low polyreactivity |
| QVQLVESGGGLVQAGGSLRLSCAASGFSFTRYAMGWYRQAPGKERELVAAIYIGGSTYYADSVKGRFTISRDNAKNTVYFQMNSQKPEDTAVYYCAVDYRHSSSWNAGPWEMYYWGQGTKVTVSS | low polyreactivity |
| QVQLVESGGGLVQAGGSLRLSCAASGFSFYRYAMGWYRQAPAKERELVARTYYADSVKGRFTISRDNAKNTVYLQMNSLKPEDTAVYYCNKDLELEYRYEYWGQGTQVTVSS | low polyreactivity |
| QVQLVESGGGLVQAGGSLRLSCAASGFSFYSYTMGWYRQAPGSVRELVAAISRSGGRTSYADSVKGRFTNSRDNAKNTVYLQMNSLKPDDTAVYYRNAVRLLQTFAEYEYWGQGTQVTVSS | high polyreactivity |
| QVQLVESGGGLVQAGGSLRLSCAASGFSLRNNAMGWYRPAPGKERELVAGITSGGRTNYADSVKGRFTISRDNAKNTVYLQMNSLKPEHTAVYYCAKRVWPRDQYGKRNPRMDYWGQGTLVTVSS | high polyreactivity |
| QVQLVESGGGLVQAGGSLRLSCAASGFSYRYYAMGWYRQAPGKERELVAAISSRGGSTYYADSVKGRFTISRDNATNTVYLQMNSLKPEDTAVYYCAADHGDPGGYDYWGQGTQVTVSS | high polyreactivity |
| QVQLVESGGGLVQAGGSLRLSCAASGFTCARYALGWYRQAPGQERELVASITWNGGRTYYAASVKGRFTISRDNAKNTVYLQMNSLKPEDTAVYYCAKDTRYTRYEYWGQGTQVTVSS | high polyreactivity |
| QVQLVESGGGLVQAGGSLRLSCAASGFTCGYYAMGWYREAPGKEREFVATISYGTGSTYYADSVKGRFTISRDNAKNTVSFQMNSLKPEDTAVYYCNADTWPGEYNGYFSGAYDYWGQGTQVTVSS | high polyreactivity |
